Measurements from the supplement of paper PMC10724198.
± gives the standard deviation of the averaged measurements.

System: Saccharomyces cerevisiae
Test: protein stability index of tFT-peptide fusion (C-terminal peptide) (PSI (0-1 scale)); higher = more stable (slower turnover)
Conditions: genetic background: wild type; temperature: 30 C
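Also: PSI is a weighted mean of sequencing reads over stability bins, variants kept only with over 10 reads, mCherry proximal and sfGFP distal, peptide attached via GGGS linker.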

Sequence | protein stability index
RLLSSPLHPPLP | 0.701 ± 0.018
RLPLAPFSVTTH | 0.699 ± 0.1
RLPLASPPHSSP | 0.675 ± 0.056
RLPLPPSRLVKH | 0.671 ± 0.026
RLPPGRPPPPPP | 0.602 ± 0.08
RLPPPSPSLPPL | 0.722 ± 0.063
RLPQSRLRTPPP | 0.705 ± 0.069
RLRTVQNLQIVV | 0.658 ± 0.028
RLSARRSVGGSA | 0.7097 ± 0.0051
RLSCFLVWFPFW | 0.5924 ± 0.0021
RLSFAWGGLLVV | 0.523 ± 0.0057
RLSGDRCSHDAG | 0.6768 ± 0.0037
RLSRCFDSHLGG | 0.696 ± 0.038
RLSVWTFCSMVW | 0.555 ± 0.0085
RLTPFPPRPLPL | 0.767 ± 0.2
RLVCLVTQSVPH | 0.613 ± 0.021
RLVNSVAVSFLR | 0.697 ± 0.1
RLVSPPPLPHRP | 0.688 ± 0.0062
RMCLDYSFDSLL | 0.673 ± 0.0082
RMIPYDLIRLTR | 0.705 ± 0.012
RMKGTNKEGKKK | 0.693 ± 0.054
RMLHYCTYSLLL | 0.71 ± 0.079
RNAEVWDNLFEG | 0.6969 ± 0.0061

Sequence | protein stability index
RNAGYPALDELS | 0.6861 ± 0.0047
RNIRINKKVKDI | 0.594 ± 0.032
RNKINKKKLKKG | 0.7403 ± 0.0062
RNKRKKNKDKIK | 0.677 ± 0.051
RNKTNYIQKLTK | 0.665 ± 0.027
RNNIKIKNTQQN | 0.759 ± 0.045
RNRRKEMKKGRE | 0.631 ± 0.034
RNSPLFLESPGS | 0.723 ± 0.034
RNTIKTKKSNYV | 0.654 ± 0.015
RPAPSRTYLNLI | 0.674 ± 0.026
RPASSYPPHSPT | 0.767 ± 0.037
RPFGRPTSMRHA | 0.616 ± 0.059
RPFLPPPPHCPP | 0.75 ± 0.036
RPFVRDFGCAVW | 0.711 ± 0.023
RPGNIRNNKKKK | 0.688 ± 0.021
RPIQPATLAYSP | 0.682 ± 0.037
RPLLPPTFATSF | 0.751 ± 0.038
RPLPPLIPSSFS | 0.698 ± 0.038
RPLSDDTDCPCI | 0.748 ± 0.13
RPLSSSFRTVPS | 0.721 ± 0.037
RPNTKKHKIGER | 0.719 ± 0.03
RPPDPPLHHNLP | 0.687 ± 0.014
RPPFPPPPLPPP | 0.656 ± 0.031

Sequence | protein stability index
RPPFRVYDYPLL | 0.671 ± 0.039
RPPPPHPSPLPL | 0.713 ± 0.052
RPPPPTAPPPSR | 0.719 ± 0.043
RPPRPGFCLFLP | 0.652 ± 0.0067
RPPSNRPPPPSS | 0.698 ± 0.0032
RPRGRGRSRGDT | 0.633 ± 0.037
RPRIPLNSSSLS | 0.74 ± 0.037
RPRLSGGLGGVG | 0.644 ± 0.051
RPRTSLFPCSLP | 0.711 ± 0.081
RPTPHVVLPPLP | 0.524 ± 0.067
RPTPSAPHRTRI | 0.735 ± 0.041
RQCSGMIMKDVG | 0.73 ± 0.036
RQDLLILIKQKG | 0.573 ± 0.0072
RQDRTFEIQGWE | 0.697 ± 0.084
RQKIRRKSSTKN | 0.704 ± 0.0074
RQRGNMEIRIRR | 0.709 ± 0.027
RRAPLRNTSRHR | 0.663 ± 0.021
RRCTLVERAWRW | 0.628 ± 0.039
RREGGRQRGGSG | 0.67 ± 0.063
RREGWYTNRERG | 0.668 ± 0.013
RRFAKVALLSLR | 0.644 ± 0.12
RRGAVVLVSPAL | 0.677 ± 0.021
RRGPLDSVLVAI | 0.713 ± 0.05

Sequence | protein stability index
RRGRGGSGGSAP | 0.734 ± 0.053
RRGWGDRLGRDA | 0.711 ± 0.1
RRHKNNRLTVCR | 0.625 ± 0.098
RRINRRGPRMME | 0.62 ± 0.015
RRKEQGNHSTMR | 0.663 ± 0.013
RRKHKSEEKHKR | 0.649 ± 0.038
RRKNIQEKKIKK | 0.725 ± 0.016
RRKVGVFTRRWV | 0.691 ± 0.04
RRKYIFRMIYPR | 0.658 ± 0.026
RRLRGGTQAEGE | 0.682 ± 0.068
RRLRRALPPQLA | 0.577 ± 0.037
RRPPPPSPPPPP | 0.7095 ± 0.0062
RRPSSCSPLPLY | 0.695 ± 0.03
RRRAEGRRGVRA | 0.6223 ± 0.0014
RRRAGSKEKQRK | 0.703 ± 0.019
RRRGQDEGKQKR | 0.7511 ± 0.0059
RRRGQLNTAEWK | 0.717 ± 0.065
RRRGREVCRCTE | 0.716 ± 0.046
RRRPPPLPPPHL | 0.63 ± 0.015
RRSGILGSSFVF | 0.75 ± 0.047
RRSRTEVVAVGG | 0.676 ± 0.017
RRSVMLISNETR | 0.698 ± 0.038
RRTDHQRAVREI | 0.731 ± 0.042

Sequence | protein stability index
RRVFSAGTRCGI | 0.761 ± 0.11
RSAVPSARASAD | 0.6431 ± 0.0026
RSCPGSWFRLSV | 0.699 ± 0.12
RSFPSPPASLLL | 0.66 ± 0.062
RSGPLFPLSCPP | 0.767 ± 0.026
RSGPRMNVNRTL | 0.646 ± 0.11
RSGQEKEKWEER | 0.701 ± 0.022
RSHSTSSETNFV | 0.6885 ± 0.0024
RSKHNEDRVVYI | 0.709 ± 0.093
RSLPLAPPLAPL | 0.742 ± 0.029
RSPPAPPHSCPP | 0.69 ± 0.14
RSRGARMPTTPT | 0.684 ± 0.034
RSRGSRNGKWVW | 0.703 ± 0.02
RSRRDTDFGLLI | 0.717 ± 0.11
RSSDFASDRGWT | 0.67 ± 0.028
RSSLYLDVVLSF | 0.709 ± 0.097
RSSRRLAGPVSS | 0.639 ± 0.06
RSSSLRRGIGQR | 0.688 ± 0.071
RSTDKLLGLKKM | 0.652 ± 0.073
RSTVFCSTFVHD | 0.672 ± 0.014
RSVGPPTLPTHP | 0.666 ± 0.023
RSWCAGMAGRRR | 0.6626 ± 0.0043
RSWGRVCFGGVV | 0.657 ± 0.054

Sequence | protein stability index
RTGTGTRTRPSR | 0.701 ± 0.066
RTKENYKRRKEK | 0.702 ± 0.12
RTLEIYRGLTNE | 0.648 ± 0.094
RTPQLSVFDLGI | 0.7957 ± 0.0039
RTRRGRIGEIGP | 0.703 ± 0.037
RTRTGRPKSPLH | 0.6354 ± 0.0052
RTSLGFSPLIHQ | 0.6818 ± 0.0057
RTVTKGTTFKVR | 0.671 ± 0.057
RTWGGKKHKKRK | 0.716 ± 0.014
RVAWFSSNCFAV | 0.571 ± 0.061
RVDFRLPVYLGI | 0.61 ± 0.015
RVEGGWGEAWRE | 0.803 ± 0.075
RVEGKNNKEVCI | 0.742 ± 0.079
RVESRFSGTDSF | 0.708 ± 0.041
RVGPLLLTAGPR | 0.644 ± 0.029
RVGQINKFLPLE | 0.682 ± 0.071
RVGSGCFVGIFC | 0.577 ± 0.024
RVKGCYGPGSGI | 0.685 ± 0.066
RVLGEGKCCIRV | 0.6063 ± 0.0056
RVLRAELCLHEI | 0.687 ± 0.065
RVLSAASATRMT | 0.619 ± 0.013
RVLSQAGSYSLC | 0.587 ± 0.019
RVLSWSGRQSWC | 0.668 ± 0.045

Sequence | protein stability index
RVNERNAEAGGD | 0.641 ± 0.043
RVPLFPIKMGLG | 0.591 ± 0.035
RVPPSRLSLPLS | 0.6951 ± 0.0043
RVRAITRKCGQY | 0.656 ± 0.051
RVRASGIGRFVE | 0.625 ± 0.033
RVRGTLMLRSYG | 0.64 ± 0.037
RVSIPALKEIAS | 0.737 ± 0.036
RVSLSHPDRCAG | 0.7264 ± 0.0025
RVSRSCCATGEG | 0.599 ± 0.019
RVSSAAGGSIDL | 0.738 ± 0.1
RVSVRGLESGVC | 0.665 ± 0.026
RVSWGSTRLSRA | 0.6427 ± 0.0064
RVVMIYAQWCLP | 0.623 ± 0.011
RVWEGGGGGDGC | 0.664 ± 0.047
RVWEGGRGGDGC | 0.676 ± 0.024
RVWERGGGGDGC | 0.645 ± 0.049
RWGCHFWVGFVG | 0.544 ± 0.046
RWIWTRESTFSN | 0.705 ± 0.016
RWVGVGPEGGVA | 0.678 ± 0.068
RYFCPVLGPVNF | 0.652 ± 0.046
RYFSFNVSSCLD | 0.767 ± 0.048
RYGYCVPNVMRS | 0.778 ± 0.11
